# T1: TAB1 (Homo sapiens, UniProt Q15750)
# T1 construct: expressed in transfected cells; host or cells: CHO cells
# T1 sequence (Q15750 437-504): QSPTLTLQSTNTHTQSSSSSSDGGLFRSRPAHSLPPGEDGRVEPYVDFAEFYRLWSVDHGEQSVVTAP
# B1: TAK1-DN: polypeptide of Glu at position 77 to Gln at position 303 of TAK1 (SEQ ID NO: 4), the TAB1 binding site; dominant negative inhibitor (protein)
# chain: ELRQLSRVNHPNIVKLYGACLNPVCLVMEYAEGGSLYNVLHGAEPLPYYTAAHAMSWCLQCSQGVAYLHSMQPKALIHRDLKPPNLLLVAGGTVLKICDFGTACDIQTHMTNNKGSAAWMAPEVFEGSNYSEKCDVFSWGIILWEVITRRKPFDEIGGPAFRIMWAVHNGTRPPLIKNLPKPIESLMTRCWSKDPSQRPSMEEIVKIMTHLMRYFPGADEPLQYPCQ
# Columns and labels:
# [1] = system: mouse kidney mesangial cell line SV40MES13; assay: Fibronectin EIA in SV40MES13 cells expressing TAK1-DN with or without TGF-β; format: cell-based; settings: 2.5 ng/ml TGF-β, 24 hours; for increase of fibronectin in the culture supernatant by TGF-β addition: control MES/NEO about 3.3 fold; for increase of fibronectin in the extracellular matrix extract by TGF-β addition: control MES/NEO about 3.8 fold
# Excerpt: Then, pTAK1DN or pCOS1 that contains no inserted genes as a control vector was linearized by digesting with a restriction enzyme PvuI. These linearized vectors were introduced by electroporation into human fibroblast-derived HT-1080 (ATCC CCL 121), a mouse kidney mesangial cell line SV40MES13 (ATCC CRL 1927), and a mink pulmonary epithelial cell line Mv1Lu (ATCC CCL 64), and cells into which the gene was introduced were selected using G418 (manufactured by GIBCO-BRL).
# The mouse mesangial cell line SV40MES13 (MES/DN3 and MES/DN6) into which pTAK1DN had been introduced and the control cells (MES/NEO) into which pCOS1 containing no inserted genes had been introduced were incubated in a low-serum medium (Medium 199 containing 0.2% FBS) with or without 2.5 ng/ml TGF-β for 24 hours. The amount of fibronectin in the culture supernatant or the extracellular matrix extract prepared using 1 M urea solution was determined by the EIA method as described in Example 7.
# TAB1 = biological target: T1, TAB1; assay: Animal cell 2-hybrid system in CHO cells, luciferase activity; format: cell-based; settings: 72 hours after gene introduction, similar to pM-TAK1 and pVP16-C68
# Procedure: It was analyzed whether a polypeptide (TAK1-DN) comprising Glu at position 77 to Gln at position 303 of the TAK1 polypeptide as set forth in SEQ ID NO: 4 inhibits binding between the TAK1 polypeptide and the TAB1 polypeptide and whether it can inhibit the activation of the TAK1 polypeptide in animal cells by an animal cell 2-hybrid system (Dang et al., (1991) Mol. Cell. Biol. 11, 954-962) using the TAB1 polypeptide and the TAK1 polypeptide.
# First, a gene encoding a full-length TAK1 and TAK1-DN and a gene encoding the GAL4 DNA-binding domain (GAL4-BD) were ligated to construct an expression vector. A gene encoding a full-length TAK1 was prepared by digesting yeast 2-hybrid expression plasmid pBTMHu11F (Shibuya H. et al., (1996) 272, 1179-1182) with restriction enzymes EcoRI and PstI, and was then linked to the EcoRI/Pst site of an expression vector pM (manufactured by CLONTECH) containing the GAL4-BD gene, which was termed an animal cell 2-hybrid expression plasmid pM-TAK1. […]
# After further incubating for 72 hours, luciferase activity in each cell extract was determined using the Dual-LuciferaseTM Assay System (manufactured by Promega). […] The efficiency of gene introduction was corrected with the measured value of luciferase activity of Renilla by pRL-SV40.
# Mv1Lu cell = assay: PAI-1 ELISA in culture supernatant of Mv1Lu cells with or without TGF-β1; format: cell-based, mink; settings: Mv1Lu cells with forced expression; 10 ng/ml TGF-β1, 24 hours; control cells about 16-fold
# Excerpt: Accordingly, TAK1DN was subjected to forced expression in the Mv1Lu cell to investigate the effects of TGF-β stimulation on PAI-1 expression. The TAK1DN expression vector used was the above-mentioned TAK1DN, and the TAK1 polypeptide mutant TAK1-K63W expression vector was constructed by inserting a gene (Yamaguchi K. et al., (1995) Science 270, 2008-2011) encoding the TAK1 polypeptide mutant TAK1-K63W in which the lysine residue at position 63 has been replaced with the tryptophan residue at the EcoRI and NotI restriction enzyme site of pCOS1 to give pTAK1K63W.
# The Mv1Lu cells into which pTAK1Dn had been introduced (Mv/DN2), the cells into which pTAK1K63W had been introduced (Mv/KN7), and the control cells into which pCOS1 containing no inserted genes (Mv/NEO) had been introduced were each incubated in a low-serum medium (MEM medium containing 0.2% FBS; manufactured by GIBCO-BRL) with or without 10 ng/ml of TGF-β1 for 24 hours. The amount of PAI-1 in the culture supernatant was determined using the PAI-1 Quantative ELISA (manufactured by CALBIOCHEM).
molecule,measurement,setting,value
B1,increase of fibronectin in the culture supernatant by TGF-β addition,[1]; MED/DN3 cells,about 2.4 fold
same,increase of fibronectin in the extracellular matrix extract by TGF-β addition,[1]; MED/DN3 cells,about 2.6 fold
same,increase of fibronectin in the culture supernatant by TGF-β addition,[1]; MES/DN6 cells,~2.3 fold
same,increase of fibronectin in the extracellular matrix extract by TGF-β addition,[1]; MES/DN6 cells,~2.1 fold
same,binding to TAB1: luciferase activity for pM-TAK1DN and pVP16-C68,TAB1,binds to TAB1
same,increase in PAI-1 in the culture supernatant by TGF-β1 addition,Mv1Lu cell,about 4.3 fold

# From patent publication US6551840B2, “Method of screening TGF-β-inhibiting substances” (Chugai Seiyaku Kabushiki Kaisha, priority 1997, dated 2003)
